Results taken from the Human Domainome abundance scans (Beltran et al. 2025).
± gives the uncertainty stated by the source.

B1: E3 ubiquitin-protein ligase Midline-1, residues 172 to 214; numbered along this chain, O15344 (parent)
chain: GLMCLEHEDEKVNMYCVTDDQLICALCKLVGRHRDHQVAALSE

Variants of: B1
Test: abundance fitness (aPCA) (normalised: wild type 0, dead -1); higher = more abundant; growth selection in yeast, the domain comes from the species named
Conditions: Homo sapiens

| Variant | abundance fitness |
| --- | --- |
| ALMCLEHEDEKVNMYCVTDDQLICALCKLVGRHRDHQVAALSE [G1A] | -0.361 ± 0.087 |
| DLMCLEHEDEKVNMYCVTDDQLICALCKLVGRHRDHQVAALSE [G1D] | 0.306 ± 0.091 |
| ELMCLEHEDEKVNMYCVTDDQLICALCKLVGRHRDHQVAALSE [G1E] | 0.134 ± 0.087 |
| KLMCLEHEDEKVNMYCVTDDQLICALCKLVGRHRDHQVAALSE [G1K] | 0.061 ± 0.29 |
| PLMCLEHEDEKVNMYCVTDDQLICALCKLVGRHRDHQVAALSE [G1P] | -0.112 ± 0.23 |
| RLMCLEHEDEKVNMYCVTDDQLICALCKLVGRHRDHQVAALSE [G1R] | -0.081 ± 0.078 |
| SLMCLEHEDEKVNMYCVTDDQLICALCKLVGRHRDHQVAALSE [G1S] | -0.184 ± 0.11 |
| TLMCLEHEDEKVNMYCVTDDQLICALCKLVGRHRDHQVAALSE [G1T] | -0.235 ± 0.27 |
| VLMCLEHEDEKVNMYCVTDDQLICALCKLVGRHRDHQVAALSE [G1V] | -0.211 ± 0.072 |
| WLMCLEHEDEKVNMYCVTDDQLICALCKLVGRHRDHQVAALSE [G1W] | -0.611 ± 0.2 |
| YLMCLEHEDEKVNMYCVTDDQLICALCKLVGRHRDHQVAALSE [G1Y] | -0.192 ± 0.15 |
| GAMCLEHEDEKVNMYCVTDDQLICALCKLVGRHRDHQVAALSE [L2A] | 0.483 ± 0.058 |
| GCMCLEHEDEKVNMYCVTDDQLICALCKLVGRHRDHQVAALSE [L2C] | 0.19 ± 0.092 |
| GDMCLEHEDEKVNMYCVTDDQLICALCKLVGRHRDHQVAALSE [L2D] | 0.674 ± 0.13 |
| GEMCLEHEDEKVNMYCVTDDQLICALCKLVGRHRDHQVAALSE [L2E] | 0.611 ± 0.056 |
| GFMCLEHEDEKVNMYCVTDDQLICALCKLVGRHRDHQVAALSE [L2F] | -0.298 ± 0.33 |
| GHMCLEHEDEKVNMYCVTDDQLICALCKLVGRHRDHQVAALSE [L2H] | 0.147 ± 0.085 |
| GIMCLEHEDEKVNMYCVTDDQLICALCKLVGRHRDHQVAALSE [L2I] | 0.257 ± 0.12 |
| GKMCLEHEDEKVNMYCVTDDQLICALCKLVGRHRDHQVAALSE [L2K] | 0.795 ± 0.1 |
| GMMCLEHEDEKVNMYCVTDDQLICALCKLVGRHRDHQVAALSE [L2M] | 0.544 ± 0.066 |

| Variant | abundance fitness |
| --- | --- |
| GQMCLEHEDEKVNMYCVTDDQLICALCKLVGRHRDHQVAALSE [L2Q] | 0.063 ± 0.11 |
| GSMCLEHEDEKVNMYCVTDDQLICALCKLVGRHRDHQVAALSE [L2S] | 0.279 ± 0.066 |
| GTMCLEHEDEKVNMYCVTDDQLICALCKLVGRHRDHQVAALSE [L2T] | 0.51 ± 0.069 |
| GVMCLEHEDEKVNMYCVTDDQLICALCKLVGRHRDHQVAALSE [L2V] | 0.233 ± 0.061 |
| GYMCLEHEDEKVNMYCVTDDQLICALCKLVGRHRDHQVAALSE [L2Y] | 0.109 ± 0.17 |
| GLACLEHEDEKVNMYCVTDDQLICALCKLVGRHRDHQVAALSE [M3A] | -0.022 ± 0.12 |
| GLCCLEHEDEKVNMYCVTDDQLICALCKLVGRHRDHQVAALSE [M3C] | -0.21 ± 0.21 |
| GLDCLEHEDEKVNMYCVTDDQLICALCKLVGRHRDHQVAALSE [M3D] | 0.018 ± 0.21 |
| GLECLEHEDEKVNMYCVTDDQLICALCKLVGRHRDHQVAALSE [M3E] | -0.332 ± 0.1 |
| GLFCLEHEDEKVNMYCVTDDQLICALCKLVGRHRDHQVAALSE [M3F] | 0.111 ± 0.13 |
| GLHCLEHEDEKVNMYCVTDDQLICALCKLVGRHRDHQVAALSE [M3H] | 0.14 ± 0.1 |
| GLICLEHEDEKVNMYCVTDDQLICALCKLVGRHRDHQVAALSE [M3I] | 0.089 ± 0.11 |
| GLKCLEHEDEKVNMYCVTDDQLICALCKLVGRHRDHQVAALSE [M3K] | -0.006 ± 0.083 |
| GLLCLEHEDEKVNMYCVTDDQLICALCKLVGRHRDHQVAALSE [M3L] | -0.05 ± 0.072 |
| GLNCLEHEDEKVNMYCVTDDQLICALCKLVGRHRDHQVAALSE [M3N] | 0.019 ± 0.16 |
| GLPCLEHEDEKVNMYCVTDDQLICALCKLVGRHRDHQVAALSE [M3P] | -0.309 ± 0.093 |
| GLQCLEHEDEKVNMYCVTDDQLICALCKLVGRHRDHQVAALSE [M3Q] | -0.276 ± 0.14 |
| GLRCLEHEDEKVNMYCVTDDQLICALCKLVGRHRDHQVAALSE [M3R] | -0.101 ± 0.057 |
| GLSCLEHEDEKVNMYCVTDDQLICALCKLVGRHRDHQVAALSE [M3S] | 0.006 ± 0.06 |
| GLTCLEHEDEKVNMYCVTDDQLICALCKLVGRHRDHQVAALSE [M3T] | -0.166 ± 0.093 |

| Variant | abundance fitness |
| --- | --- |
| GLVCLEHEDEKVNMYCVTDDQLICALCKLVGRHRDHQVAALSE [M3V] | -0.144 ± 0.075 |
| GLWCLEHEDEKVNMYCVTDDQLICALCKLVGRHRDHQVAALSE [M3W] | -0.333 ± 0.086 |
| GLYCLEHEDEKVNMYCVTDDQLICALCKLVGRHRDHQVAALSE [M3Y] | -0.229 ± 0.26 |
| GLMALEHEDEKVNMYCVTDDQLICALCKLVGRHRDHQVAALSE [C4A] | -0.699 ± 0.11 |
| GLMDLEHEDEKVNMYCVTDDQLICALCKLVGRHRDHQVAALSE [C4D] | -0.343 ± 0.083 |
| GLMELEHEDEKVNMYCVTDDQLICALCKLVGRHRDHQVAALSE [C4E] | -0.441 ± 0.096 |
| GLMGLEHEDEKVNMYCVTDDQLICALCKLVGRHRDHQVAALSE [C4G] | -0.713 ± 0.083 |
| GLMHLEHEDEKVNMYCVTDDQLICALCKLVGRHRDHQVAALSE [C4H] | -0.221 ± 0.24 |
| GLMPLEHEDEKVNMYCVTDDQLICALCKLVGRHRDHQVAALSE [C4P] | -1.18 ± 0.29 |
| GLMQLEHEDEKVNMYCVTDDQLICALCKLVGRHRDHQVAALSE [C4Q] | -0.314 ± 0.079 |
| GLMRLEHEDEKVNMYCVTDDQLICALCKLVGRHRDHQVAALSE [C4R] | -0.647 ± 0.086 |
| GLMSLEHEDEKVNMYCVTDDQLICALCKLVGRHRDHQVAALSE [C4S] | -0.295 ± 0.085 |
| GLMTLEHEDEKVNMYCVTDDQLICALCKLVGRHRDHQVAALSE [C4T] | -0.078 ± 0.13 |
| GLMVLEHEDEKVNMYCVTDDQLICALCKLVGRHRDHQVAALSE [C4V] | -0.944 ± 0.14 |
| GLMWLEHEDEKVNMYCVTDDQLICALCKLVGRHRDHQVAALSE [C4W] | -0.439 ± 0.12 |
| GLMYLEHEDEKVNMYCVTDDQLICALCKLVGRHRDHQVAALSE [C4Y] | -0.594 ± 0.2 |
| GLMCAEHEDEKVNMYCVTDDQLICALCKLVGRHRDHQVAALSE [L5A] | 0.023 ± 0.051 |
| GLMCCEHEDEKVNMYCVTDDQLICALCKLVGRHRDHQVAALSE [L5C] | 0.055 ± 0.11 |
| GLMCDEHEDEKVNMYCVTDDQLICALCKLVGRHRDHQVAALSE [L5D] | 0.039 ± 0.12 |
